In PMC7283332, “convertibleCARs: A chimeric antigen receptor system for flexible control of activity and antigen targeting” (Communications Biology, 2020):

Molecular target: T1, ULBP2 α1α2 domain, C-terminal 6×-His (human, UniProt Q9BZM5 29-212)
T1 construct: ULBP2, human, α1α2 domains, UniProtKB Q9BZM5 residues 29-212; monomeric protein; also called wild-type ULBP2; MIC-His ligand; source: Expi293 supernatant, purified (Ni-NTA); not shown: His6, C-terminal, kept
T1 sequence (looked up): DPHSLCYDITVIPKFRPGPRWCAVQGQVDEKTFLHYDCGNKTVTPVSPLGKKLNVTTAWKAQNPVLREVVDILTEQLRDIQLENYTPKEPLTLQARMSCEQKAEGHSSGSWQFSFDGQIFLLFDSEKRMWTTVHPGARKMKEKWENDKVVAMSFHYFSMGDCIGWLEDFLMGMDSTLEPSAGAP
Test: BLI; FortéBio Octet; Fc-wtNKG2D, Fc-iNKG2D.YA or Fc-iNKG2D.AF captured on anti-human IgG Fc capture (AHC) biosensor tips; titration series of monomeric MIC-His ligands or monomeric ULBP2 variants
Conditions: both partners purified

binding result: binds
B1: Fc-wtNKG2D (Fc fusion, human, UniProt P26718 78-216, looked up)
chain: FLNSLFNQEVQIPLTESYCGPCPKNWICYKNNCYQFFDESKNWYESQASCMSQNASLLKVYSKEDQDLLKLVKSYHWMGLVHIPTNGSWQWEDGSILSPNLLTIIEMQKGDCALYASSFKGYIENCSTPNTYICMQRTV
notes: NKG2D wild-type ectodomain, human, UniProtKB P26718 residues 78-216; NKG2D is fused to the C-terminus of the Fc through a factor Xa site linker Ile-Glu-Gly-Arg (IEGR); also called wild-type NKG2D; source: Expi293 cells, secreted, purified (Protein A, SEC); not shown: Fc (human IgG1), N-terminal, kept
